Laboratory results published in the supplement of paper PMC5998384.

What was measured:
HeLa Kyoto [1] = assay: thermal stability score vs G1/S (z-score of summed log2 fold changes over temperatures); higher = more thermally stable than in G1/S
HeLa Kyoto [2] = assay: solubility in G1/S (NP-40 vs SDS abundance) (log2 ratio); higher = more soluble; settings: cell cycle stage: G1/S
HeLa Kyoto [3] = assay: solubility change mitosis vs G1/S (difference of NP-40 vs SDS log2 ratios) (log2 ratio difference); higher = more soluble in mitosis
HeLa Kyoto [4] = assay: melting temperature (median over replicates), in situ; higher = more thermally stable
[5] = cell cycle stage: early G1 (4.5 h after nocodazole release)
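For melting temperature (median over replicates), in situ in this document: HeLa Kyoto cells synchronized by double thymidine or nocodazole block, proteins quantified by TMT10plex mass spectrometry, three independent biological replicates.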
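For solubility change mitosis vs G1/S (difference of NP-40 vs SDS log2 ratios) in this document: synchronized HeLa Kyoto cells (double thymidine block for G1/S, nocodazole release for mitosis), protein amounts in NP-40 versus SDS lysates quantified by mass spectrometry, three biological replicates.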
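For solubility in G1/S (NP-40 vs SDS abundance) in this document: HeLa Kyoto cells arrested at G1/S by double thymidine block, proteins quantified by TMT10plex mass spectrometry in mild NP-40 versus SDS extracts, three biological replicates.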
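For thermal stability score vs G1/S (z-score of summed log2 fold changes over temperatures) in this document: synchronized HeLa Kyoto cells, proteins quantified by TMT10plex mass spectrometry, three biological replicates, mitosis taken 0.5 h after nocodazole release, G1/S directly after double thymidine block.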

Row | Substance | thermal stability score (HeLa Kyoto [1]; [5]) | thermal stability score (HeLa Kyoto [1]; cell cycle stage: mitosis) | solubility in G1/S (log2) (HeLa Kyoto [2]) | solubility change mitosis (log2) (HeLa Kyoto [3]) | melting temperature (HeLa Kyoto [4]; cell cycle stage: G1/S) | melting temperature (HeLa Kyoto [4]; cell cycle stage: mitosis)
1 | MSLKNEPRVNTSALQKIAADMSNIIENLDTRELHFEGEEVDYDVSPSDPKIQEVYIPFSAIYNTQGFKEPNIQTYLSGCPIKAQVLEVERFTSTTRVPSINLYTIELTHGEFKWQVKRKFKHFQEFHRELLKYKAFIRIPIPTRRHTFRRQNVREEPREMPSLPRSSENMIREEQFLGRRKQLEDYLTKILKMPMYRNYHATTEFLDISQLSFIHDLGPKGIEGMIMKRSGGHRIPGLNCCGQGRACYRWSKRWLIVKDSFLLYMKPDSGAIAFVLLVDKEFKIKVGKKETETKYGIRIDNLSRTLILKCNSYRHARWWGGAIEEFIQKHGTNFLKDHRFGSYAAIQENALAKWYVNAKGYFEDVANAMEEANEEIFITDWWLSPEIFLKRPVVEGNRWRLDCILKRKAQQGVRIFIMLYKEVELALGINSEYTKRTLMRLHPNIKVMRHPDHVSSTVYLWAHHEKLVIIDQSVAFVGGIDLAYGRWDDNEHRLTDVGSVKRVTSGPSLGSLPPAAMESMESLRLKDKNEPVQNLPIQKSIDDVDSKLKGIGKPRKFSKFSLYKQLHRHHLHDADSISSIDSTSSYFNHYRSHHNLIHGLKPHFKLFHPSSESEQGLTRPHADTGSIRSLQTGVGELHGETRFWHGKDYCNFVFKDWVQLDKPFADFIDRYSTPRMPWHDIASAVHGKAARDVARHFIQRWNFTKIMKSKYRSLSYPFLLPKSQTTAHELRYQVPGSVHANVQLLRSAADWSAGIKYHEESIHAAYVHVIENSRHYIYIENQFFISCADDKVVFNKIGDAIAQRILKAHRENQKYRVYVVIPLLPGFEGDISTGGGNALQAIMHFNYRTMCRGENSILGQLKAELGNQWINYISFCGLRTHAELEGNLVTELIYVHSKLLIADDNTVIIGSANINDRSMLGKRDSEMAVIVQDTETVPSVMDGKEYQAGRFARGLRLQCFRVVLGYLDDPSEDIQDPVSDKFFKEVWVSTAARNATIYDKVFRCLPNDEVHNLIQLRDFINKPVLAKEDPIRAEEELKKIRGFLVQFPFYFLSEESLLPSVGTKEAIVPMEVWT [PLD1] | -0.632 | -0.457 | -0.336 | -0.0809 | 51.6 °C | 51.7 °C
2 | MPLAQLKEPWPLMELVPLDPENGQTSGEEAGLQPSKDEGVLKEISITHHVKAGSEKADPSHFELLKVLGQGSFGKVFLVRKVTRPDSGHLYAMKVLKKATLKVRDRVRTKMERDILADVNHPFVVKLHYAFQTEGKLYLILDFLRGGDLFTRLSKEVMFTEEDVKFYLAELALGLDHLHSLGIIYRDLKPENILLDEEGHIKLTDFGLSKEAIDHEKKAYSFCGTVEYMAPEVVNRQGHSHSADWWSYGVLMFEMLTGSLPFQGKDRKETMTLILKAKLGMPQFLSTEAQSLLRALFKRNPANRLGSGPDGAEEIKRHVFYSTIDWNKLYRREIKPPFKPAVAQPDDTFYFDTEFTSRTPKDSPGIPPSAGAHQLFRGFSFVATGLMEDDGKPRAPQAPLHSVVQQLHGKNLVFSDGYVVKETIGVGSYSECKRCVHKATNMEYAVKVIDKSKRDPSEEIEILLRYGQHPNIITLKDVYDDGKHVYLVTELMRGGELLDKILRQKFFSEREASFVLHTIGKTVEYLHSQGVVHRDLKPSNILYVDESGNPECLRICDFGFAKQLRAENGLLMTPCYTANFVAPEVLKRQGYDEGCDIWSLGILLYTMLAGYTPFANGPSDTPEEILTRIGSGKFTLSGGNWNTVSETAKDLVSKMLHVDPHQRLTAKQVLQHPWVTQKDKLPQSQLSHQDLQLVKGAMAATYSALNSSKPTPQLKPIESSILAQRRVRKLPSTTL [RPS6KA1] | 0.39 | 1.42 | 0.0398 | -0.118 | 49.6 °C | 50.2 °C
3 | MQGSSLWLSLTFRSARVLSRARFFEWQSPGLPNTAAMENGTGPYGEERPREVQETTVTEGAAKIAFPSANEVFYNPVQEFNRDLTCAVITEFARIQLGAKGIQIKVPGEKDTQKVVVDLSEQEEEKVELKESENLASGDQPRTAAVGEICEEGLHVLEGLAASGLRSIRFALEVPGLRSVVANDASTRAVDLIRRNVQLNDVAHLVQPSQADARMLMYQHQRVSERFDVIDLDPYGSPATFLDAAVQAVSEGGLLCVTCTDMAVLAGNSGETCYSKYGAMALKSRACHEMALRIVLHSLDLRANCYQRFVVPLLSISADFYVRVFVRVFTGQAKVKASASKQALVFQCVGCGAFHLQRLGKASGVPSGRAKFSAACGPPVTPECEHCGQRHQLGGPMWAEPIHDLDFVGRVLEAVSANPGRFHTSERIRGVLSVITEELPDVPLYYTLDQLSSTIHCNTPSLLQLRSALLHADFRVSLSHACKNAVKTDAPASALWDIMRCWEKECPVKRERLSETSPAFRILSVEPRLQANFTIREDANPSSRQRGLKRFQANPEANWGPRPRARPGGKAADEAMEERRRLLQNKRKEPPEDVAQRAARLKTFPCKRFKEGTCQRGDQCCYSHSPPTPRVSADAAPDCPETSNQTPPGPGAAAGPGID [TRMT1] | -0.711 | -1.01 | -0.0405 | -0.0538 | 56.3 °C | 56.7 °C
4 | MDRVTRYPILGIPQAHRGTGLVLDGDTSYTYHLVCMGPEASGWGQDEPQTWPTDHRAQQGVQRQGVSYSVHAYTGQPSPRGLHSENREDEGWQVYRLGARDAHQGRPTWALRPEDGEDKEMKTYRLDAGDADPRRLCDLERERWAVIQGQAVRKSSTVATLQGTPDHGDPRTPGPPRSTPLEENVVDREQIDFLAARQQFLSLEQANKGAPHSSPARGTPAGTTPGASQAPKAFNKPHLANGHVVPIKPQVKGVVREENKVRAVPTWASVQVVDDPGSLASVESPGTPKETPIEREIRLAQEREADLREQRGLRQATDHQELVEIPTRPLLTKLSLITAPRRERGRPSLYVQRDIVQETQREEDHRREGLHVGRASTPDWVSEGPQPGLRRALSSDSILSPAPDARAADPAPEVRKVNRIPPDAYQPYLSPGTPQLEFSAFGAFGKPSSLSTAEAKAATSPKATMSPRHLSESSGKPLSTKQEASKPPRGCPQANRGVVRWEYFRLRPLRFRAPDEPQQAQVPHVWGWEVAGAPALRLQKSQSSDLLERERESVLRREQEVAEERRNALFPEVFSPTPDENSDQNSRSSSQASGITGSYSVSESPFFSPIHLHSNVAWTVEDPVDSAPPGQRKKEQWYAGINPSDGINSEVLEAIRVTRHKNAMAERWESRIYASEEDD [MISP] | -1.21 | -1.86 | -2.09 | 1.38 |  | 51.9 °C
5 | MASVSALTEELDSITSELHAVEIQIQELTERQQELIQKKKVLTKKIKQCLEDSDAGASNEYDSSPAAWNKEDFPWSGKVKDILQNVFKLEKFRPLQLETINVTMAGKEVFLVMPTGGGKSLCYQLPALCSDGFTLVICPLISLMEDQLMVLKQLGISATMLNASSSKEHVKWVHAEMVNKNSELKLIYVTPEKIAKSKMFMSRLEKAYEARRFTRIAVDEVHCCSQWGHDFRPDYKALGILKRQFPNASLIGLTATATNHVLTDAQKILCIEKCFTFTASFNRPNLYYEVRQKPSNTEDFIEDIVKLINGRYKGQSGIIYCFSQKDSEQVTVSLQNLGIHAGAYHANLEPEDKTTVHRKWSANEIQVVVATVAFGMGIDKPDVRFVIHHSMSKSMENYYQESGRAGRDDMKADCILYYGFGDIFRISSMVVMENVGQQKLYEMVSYCQNISKCRRVLMAQHFDEVWNSEACNKMCDNCCKDSAFERKNITEYCRDLIKILKQAEELNEKLTPLKLIDSWMGKGAAKLRVAGVVAPTLPREDLEKIIAHFLIQQYLKEDYSFTAYATISYLKIGPKANLLNNEAHAITMQVTKSTQNSFRAESSQTCHSEQGDKKMEEKNSGNFQKKAANMLQQSGSKNTGAKKRKIDDA [RECQL] | -1.7 | -4.39 | 0.0561 | -0.174 | 54 °C | 53.4 °C
6 | MASSSGSKAEFIVGGKYKLVRKIGSGSFGDIYLAINITNGEEVAVKLESQKARHPQLLYESKLYKILQGGVGIPHIRWYGQEKDYNVLVMDLLGPSLEDLFNFCSRRFTMKTVLMLADQMISRIEYVHTKNFIHRDIKPDNFLMGIGRHCNKLFLIDFGLAKKYRDNRTRQHIPYREDKNLTGTARYASINAHLGIEQSRRDDMESLGYVLMYFNRTSLPWQGLKAATKKQKYEKISEKKMSTPVEVLCKGFPAEFAMYLNYCRGLRFEEAPDYMYLRQLFRILFRTLNHQYDYTFDWTMLKQKAAQQAASSSGQGQQAQTPTGKQTDKTKSNMKGF [CSNK1A1] | 1.17 | 1.69 | -0.00541 | -0.0146 | 49.6 °C | 50.2 °C
7 | THADA | -0.0368 | -1.12 | -0.395 | -0.159 | 51.6 °C | 50.2 °C
